Where a chain is given by its changes, count along the chain named.
T1: biotinylated recombinant human soluble TNFR1 (human, UniProt P19438 30-211, biotinylated (EZ-Link Sulfo-NHS-LC-Biotin), sites not stated)
T1 construct: extracellular domain; Captured on a streptavidin BIAcore chip; also called human sTNFR1; sTNFR1
T1 sequence (looked up): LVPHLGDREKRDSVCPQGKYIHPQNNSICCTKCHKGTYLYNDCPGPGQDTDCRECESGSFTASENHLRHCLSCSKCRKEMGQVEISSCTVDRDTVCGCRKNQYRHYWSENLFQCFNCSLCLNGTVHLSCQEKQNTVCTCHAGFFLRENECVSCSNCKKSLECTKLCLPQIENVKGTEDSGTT

T2: human TNFR1 on human umbilical vein endothelial cells (HUVECs) (human, UniProt P19438 30-455)
T2 sequence (looked up): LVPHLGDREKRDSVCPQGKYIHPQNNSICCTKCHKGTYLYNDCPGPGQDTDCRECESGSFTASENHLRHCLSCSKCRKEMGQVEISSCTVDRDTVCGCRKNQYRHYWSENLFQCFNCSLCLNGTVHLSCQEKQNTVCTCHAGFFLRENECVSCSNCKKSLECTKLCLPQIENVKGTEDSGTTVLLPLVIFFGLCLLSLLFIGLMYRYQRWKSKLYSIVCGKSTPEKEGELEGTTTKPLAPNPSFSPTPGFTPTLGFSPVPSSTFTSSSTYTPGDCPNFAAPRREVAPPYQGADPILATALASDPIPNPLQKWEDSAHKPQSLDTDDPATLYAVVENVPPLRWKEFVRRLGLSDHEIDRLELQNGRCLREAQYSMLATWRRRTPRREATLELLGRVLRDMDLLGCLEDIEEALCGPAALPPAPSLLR

B1: DOM1h-574-188 (VHH)
VHH: EVQLLESGGGLVQPGGSLRLSCAASGFTFDKYSMGWVRQAPGKGLEWVSQISDTADRTYYAHSVKGRFTISRDNSKNTLYLQMNSLRAEDTAVYYCAIYTGRWVPFEYWGQGTLVTVSS
notes: Human VH immunoglobulin single variable domain (dAb), not camelid; also called anti-TNFR1 dAb DOM1h-574-188
B2: DOM1h-574-214 (VHH)
VHH: B1 VHH with D30S, H62D
notes: Human VH immunoglobulin single variable domain (dAb), not camelid; Monomer cloned in pDOM13 for expression in E. coli; also called anti-TNFR1 dAb DOM1h-574-214
B3: DOM1h-574-196 (VHH)
VHH: B1 VHH with D30S, V104E
notes: Human VH immunoglobulin single variable domain (dAb), not camelid; Monomer cloned in pDOM13 for expression in E. coli; also called anti-TNFR1 dAb DOM1h-574-196
B4: DMS5544 (bispecific antibody)
chain: EVQLLESGGGLVQPGGSLRLSCAASGFTFDKYSMGWVRQAPGKGLEWVSQISDTADRTYYAHSVKGRFTISRDNSKNTLYLQMNSLRAEDTAVYYCAIYTGRWVPFEYWGQGTLVTVSSASTDIQMTQSPSSLSASVGDRVTITCRASRPIGTTLSWYQQKPGKAPKLLILWNSRLQSGVPSRFSGSGSGTDFTLTISSLQPEDFATYYCAQAGTHPTTFGQGTKVEIKR
notes: Single-chain genetic fusion of the anti-TNFR1 VH dAb DOM1h-574-188, linker AST and the anti-serum albumin Vk dAb DOM7h-11-3; also called DOM1h-574-188 - Ala-Ser-Thr - DOM7h-11-3; anti-TNFR1/AlbudAb fusion
B5: DMS5535 (bispecific antibody)
chain: B4 chain with D30S, V104E
notes: Single-chain genetic fusion of the anti-TNFR1 VH dAb DOM1h-574-196, linker AST and the anti-serum albumin Vk dAb DOM7h-11-3; also called DOM1h-574-196 - Ala-Ser-Thr - DOM7h-11-3; anti-TNFR1/AlbudAb fusion
B6: DMS5542 (bispecific antibody)
chain: B4 chain with D30S, H62D
notes: Single-chain genetic fusion of the anti-TNFR1 VH dAb DOM1h-574-214, linker AST and the anti-serum albumin Vk dAb DOM7h-11-3; also called DOM1h-574-214 - Ala-Ser-Thr - DOM7h-11-3; anti-TNFR1/AlbudAb fusion

Key:
[1] = target: T1, biotinylated recombinant human soluble …; assay: BIAcore (SPR), biotinylated human sTNFR1 on SA chip, dAb injected
Protocol: (§1) To confirm the increase in accelerated stability four novel dAbs were also characterised according to the more extensive protocol described in example 1. In this protocol, the dAbs are incubated up to 48 h at 40° C., centrifuged and the remaining dAb in solution quantified using OD₂₈₀. […] To verify that the increase in stability is not at the expense of functional anti-TNFR1 activity of the dAb, the binding affinity to TNFR1 of the dAbs was determined by BIAcore, using biotinylated TNFR1 captured on a BIAcore SA chip. […] Therefore, these dAbs combine an increase in accelerated stability without compromising much on the affinity of the dAb for TNFR1.
TABLE 7 Accelerated stability and affinity for human sTNFR1 for novel anti-TNFR1 dAbs. Purified dAb was incubated at 1 mg/ml in PBS at 40° C. for the indicated amounts of time. After that time, the percentage of residual protein in solution was determined by OD280 determination. Affinity for sTNFR1 was determined by BIAcore using coated sTNFR1 and injecting the dAb as described.

[2] = target: T1, biotinylated recombinant human soluble …; assay: BIAcore (SPR), biotinylated TNFR1 on SA chip; reference value of DOM1h-574-156 (150 pM) described previously
Protocol: as §1

[3] = target: T2, human TNFR1 on human umbilical vein …; assay: cell-based or functional assay
[4] = target: T1, biotinylated recombinant human soluble …; assay: BIAcore (SPR), biotinylated human TNFR1 on streptavidin chip, fusion injected, mean of two experiments ± SD
Protocol: The affinity of the anti-TNFR1/AlbudAb fusions for human TNFR1 was determined by BIAcore. Briefly, the anti-TNFR1 molecules were injected over a streptavidin BIAcore chip on which biotinylated, human TNFR1 had been immobilised. Association and dissociation were determined at different concentrations of injected anti-TNFR1. […] The affinity for human TNFR1 as determined by BIAcore of the anti-TNFR1/AlbudAb fusion is slightly higher to that determined for the single anti-TNFR1 dAb used in each of the combination constructs.
The binding affinities for binding to recombinant human TNFR1 were assessed by BIAcore™ analysis. Analysis was carried out using Streptavidin coated (SA) chips (BIAcore, cat no. BR-1000-32). An SA chip was coated at low density using biotinylated hTNFR1. Examined molecules were injected over this surface at […] concentrations, i.e. 32, 16 (twice), 8, 4, 2, 1 and 0.5 nM, in random order using a flow rate of 50 μl/min. Between individual injections the surface was regenerated back to baseline using 10 mM glycine pH 2.0. Data were corrected for instrument artefacts using double referencing. Experiments were carried out on a BIAcore™ 3000 machine and data were analysed using the BIAevaluation software version 4.1, kₒₙ and koff were simultaneously fitted using 1:1 Langmuir binding model. For fitting purposes, the concentration range 1-32 nM was used for the monomers, while 0.5-16 nM was used for the AlbudAb fusion molecules. The binding data fitted well to the 1:1 model for all tested molecules. All KD values were calculated from kₒₙ and koff rates. BIAcore™ runs were carried out at 25° C.

| Binder | Kd [1] [nM] | fold change of affinity against the parent dAb DOM1h-574-156 [2] [fold] | Mean EC50, inhibition of TNF-alpha-induced VCAM-1 expression in the HUVEC cell assay [3] [nM] | Kd [4] [nM] |
| --- | --- | --- | --- | --- |
| B1 | 0.35 | ≤ 4 | – | – |
| B2 | 0.58 | ≤ 4 | – | – |
| B3 | 0.47 | ≤ 4 | – | – |
| B4 | – | – | 4.83 | 0.18 |
| B5 | – | – | 5.79 | 0.277 |
| B6 | – | – | 6.23 | 0.202 |
